The results in this text go back to the supplement of paper PMC10126150.

± gives the standard deviation of the averaged measurements.
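Note: ATP exposure 15 min at 22 °C before imaging.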

This series concerns ATP. Nature of the series: switch fluorescence ratio, 500 uM ATP over buffer (Cy3 cluster intensity, sum of 5 cycles each) (fold (ratio)); higher = stronger signal-on switching upon ATP binding; sequences stand for … in TCGTCGGCAGCGTCAGATGTGTATAAGAGACAGTTTTTTTTTTTTTTTTTTTTTTTTT…TC. The note with it: aptamer strand: ATP DNA aptamer (quencher-CACCTGGGGGAGTATTGCGGAGGAAGG + anchor), 100 nM annealed; ATP concentration: 500 uM. An outline of the steps: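 Cy3-labelled switching-strand clusters on a modified Illumina MiSeq flow-cell were annealed to 100 nM quencher-labelled ATP aptamer and imaged first in selection buffer, then after 15 min with 500 uM ATP at 22 °C. NaOH stripping and re-annealing separated each of five buffer/ATP cycles, and clusters outside 100-1000 RFU were excluded. The fluorescence ratio sums target-cycle Cy3 intensity over buffer-cycle Cy3 intensity per cluster and averages it per switch-domain sequence.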
For the sequence TAAAAGGGAA, the switch fluorescence ratio was 1.01 ± 0.024.
Regarding CCGGTGCGTG, the switch fluorescence ratio was determined as 1.13 ± 0.14.
For TGGGGAAACC the value was 2.35 ± 2.3; for TGGAAAAGCT, 1.06 ± 0.034.
For TAACTAAATT the value was 0.98675 ± 0.00031; for AAAATACTAT, 1.02 ± 0.026; for TTGATTTTAG, 1 ± 0.031.
Regarding TCGGGGACGT, the switch fluorescence ratio came to 1.062 ± 0.0057.
With GTGTCTAGTA, the switch fluorescence ratio stood at 1 ± 0.02.
On to TTGTTTGAAA, for which the switch fluorescence ratio turned out to be 1 ± 0.064.
Consider ACTACCTACA, for which the switch fluorescence ratio was 1.364 ± 0.0065.
Consider TCTTGTATAG, for which the switch fluorescence ratio is 0.966 ± 0.032.
TCATACGGTA: the switch fluorescence ratio stood at 1.179 ± 0.005.
As to ATGGTTTTAA, the switch fluorescence ratio stood at 1.03 ± 0.02.
For GATACCTTCG the value was 2.614 ± 0.023.
For GGTGGAGGAA, the switch fluorescence ratio is 1.027 ± 0.0053.
As to GGGTGAAGTT, the switch fluorescence ratio turned out to be 0.984 ± 0.036.
For TGCTCCTGTA, the switch fluorescence ratio worked out at 1 ± 0.024.
Take GGGAAACTTG: the switch fluorescence ratio is 0.988 ± 0.017.
TTGTGGGAAG: the switch fluorescence ratio is 0.976 ± 0.034.
For the sequence TTCTTTTTGA, the switch fluorescence ratio was found to be 1.43 ± 0.59.
As to AGGGGCAGGG, the switch fluorescence ratio worked out at 0.932 ± 0.081.
For GTAACGTTAG the value was 0.998 ± 0.042; for GGGGGATGG, 0.994 ± 0.016; for GGTTATATAG, 1.01 ± 0.016.
For TGAGGCTAGG the value was 1.02 ± 0.017; for GACAAAGGAT, 1.04 ± 0.025; for GACGCTCATG, 1.04 ± 0.033.
Regarding TGGCAAAGTT, the switch fluorescence ratio is 0.985 ± 0.013.
As to AATTTAATGG, the switch fluorescence ratio is 1.04 ± 0.053.
In the case of GGCTGGGCGA, the switch fluorescence ratio came out at 0.983 ± 0.02.
For AGTGGCAAGG the value was 0.9943 ± 0.0063; for GCCCAAAAGA, 1.02 ± 0.02; for AGGGGGACAC, 1 ± 0.028.
Regarding TTAAGGCAAA, the switch fluorescence ratio is 1.03 ± 0.019.
For AGGAAGAGGC, the switch fluorescence ratio was determined as 1.08 ± 0.18.
With ATCATGCGGG, the switch fluorescence ratio is 0.99749 ± 7e-05.
Consider GCGGACACGC, for which the switch fluorescence ratio was determined as 1.02 ± 0.014.
With CGGCTGGCGG, the switch fluorescence ratio was determined as 0.997 ± 0.026.
Take AAAAAAAGGA: the switch fluorescence ratio amounted to 1.01 ± 0.021.
Consider TAGCCCCCAG, for which the switch fluorescence ratio is 1.6 ± 0.78.
For the sequence GGGGTGGTGG, the switch fluorescence ratio turned out to be 0.9888 ± 0.007.
With CTATCTGTAG, the switch fluorescence ratio is 0.994 ± 0.03.
Take CATGAAGCTG: the switch fluorescence ratio came out at 1.02 ± 0.018.
Consider GAGTGTTTTG, for which the switch fluorescence ratio amounted to 0.9957 ± 0.008.
CAGGGGGCGT: the switch fluorescence ratio came out at 0.984 ± 0.0037.
AGGAGTGCCA: the switch fluorescence ratio is 1.017 ± 0.0093.
For TTCCCAGATG the value was 1.81 ± 0.41; for AGTTTGATGG, 0.99 ± 0.087.
Under GGAAGGAGAT stands 1.003 ± 0.0093; under TACTCGTGGT, 1 ± 0.064; under TAGGATGCAC, 1.014 ± 0.0033.
Under TTGGATAGGT stands 0.981 ± 0.027.
Turning to AGTTGTTTGG, the switch fluorescence ratio amounted to 1 ± 0.025.
As to CGGGTAGGGC, the switch fluorescence ratio worked out at 1.01 ± 0.032.
For CATTAGATCG the value was 0.997 ± 0.044.
For ACGGGGTGTT, the switch fluorescence ratio came to 1 ± 0.04.
For AAGGTTGTTT the value was 0.983 ± 0.03.
With TTGATTTACT, the switch fluorescence ratio came to 0.993 ± 0.03.
For GAAGCCGGGG, the switch fluorescence ratio was 0.9839 ± 0.0083.
On to ATGTTATTG, for which the switch fluorescence ratio was found to be 0.973 ± 0.031.
Under CCTTTTAGCG stands 1.16 ± 0.055.
Consider CGCTTTGTGT, for which the switch fluorescence ratio stood at 0.973 ± 0.032.
For GAACAAGGGA, the switch fluorescence ratio was 1.004 ± 0.0086.
Turning to ACTAGTCACG, the switch fluorescence ratio came to 1.072 ± 0.0093.
As for TTATAAGACT, the switch fluorescence ratio is 1.044 ± 0.0064.
As for GAGTGAGGCA, the switch fluorescence ratio was found to be 0.981 ± 0.02.
Regarding GGGTTCTGGA, the switch fluorescence ratio came out at 1.01 ± 0.019.
In the case of TGTTTGGGTG, the switch fluorescence ratio was 1.08 ± 0.11.
As to CCTATACAAC, the switch fluorescence ratio was 1.11 ± 0.044.
As for TTCATCGGGT, the switch fluorescence ratio turned out to be 1.01 ± 0.014.
With ACCTATTCGT, the switch fluorescence ratio was 1.054 ± 0.0047.
Turning to TAGGTTGTTG, the switch fluorescence ratio worked out at 0.969 ± 0.011.
On to ACGTCGGGTG, for which the switch fluorescence ratio worked out at 1.25 ± 0.15.
On to CGGGACAGCG, for which the switch fluorescence ratio amounted to 1.01 ± 0.0058.
Turning to GTAATGTCTT, the switch fluorescence ratio is 0.9797 ± 0.0084.
Turning to TTTCGGTTAA, the switch fluorescence ratio is 1.09 ± 0.11.
Take GGTTTCCCT: the switch fluorescence ratio was determined as 0.973 ± 0.019.
As to CGAAGTATAG, the switch fluorescence ratio was 1.37 ± 0.038.
